Assays:
Assay in all cases: ELISA
[1] = biological target: H1 HA A/Solomon Islands/03/2006 (H1N1), recombinant soluble trimer (influenza A virus)
[2] = biological target: H1 HA A/Texas/36/1991 (H1N1), recombinant soluble trimer (influenza A virus)
[3] = biological target: H3 HA A/Texas/50/2012, recombinant soluble trimer (influenza A virus)

Measured: EC50 relative to wild type rFluA-20

B1: rFluA-20 heavy chain mutant Y100aA (antibody, V domains shown)
VH: QVQLQESGPGLVKPSETLSLTCSVSGVSVTSDIYYWTWIRQPPGKGLEWIGYIFYNGDTNYNPSLKSRVTMSIDTSKNEFSLRLTSVTAADTAVYFCARGTEDLGACSSGSCPNHWGQGTLVTVSS
VL: DIQMTQSPSSLSASIGDRVTITCRPSQNIRSFLNWFQHKPGKAPKLLIYAASNLQSGVPSRFSGSGSGTEFTLTIRSLQPEDFATYYCQQSYNTPPTFGQGTKVEIK
> 100 fold: all assays above

From patent US20220387578A1
